Consider three molecules from paper PMC6192639, “Generation and characterization of monoclonal antibodies that recognize human and murine supervillin protein isoforms” (PLoS ONE, 2018).

Changes are numbered by the printed parent chain.

The target of experiment [1] is T1, endogenous human supervillin splice-form 4 (SV4) (human (endogenous in U2OS)).
T1 construct: also called hSV4; source: endogenous, U2OS lysate
The experiment is described as follows: immunoblot; cell extracts (HeLa; U2OS with control or SVIL-specific dsRNA; mouse embryonic fibroblasts) on 5-15% SDS gels, nitrocellulose strips probed with hybridoma supernatants diluted 1:500. The following applies: partners not purified.

The target in experiment [2] is T2, h340 linear peptide IENQRRGQELSATRQ (Homo sapiens).
T2 construct: 15-residue peptide of human supervillin h340; numbers count on: hSV1; spot on a peptide microarray; source: printed peptide microarray (PEPperPRINT)
T2 chain: IENQRRGQELSATRQ
As to the kind of experiment: peptide or protein array; PEPperPRINT microarray of linear 15-residue h340 peptides (overlap 13), hybridoma supernatants diluted 1:10 and 1:1, 16 h at 4 C, anti-mouse IgG DyLight680. To be noted: one partner purified.

For experiment [3], the target named is T3, h340 linear peptide ELSATRQAHDLSPAA (Homo sapiens).
T3 construct: 15-residue peptide of human supervillin h340; numbers count on: hSV1; spot on a peptide microarray; source: printed peptide microarray (PEPperPRINT)
T3 chain: ELSATRQAHDLSPAA
The experiment is described as above. To be noted: one partner purified.

Experiment [4] concerns the target T4, human supervillin N-terminus, first 340 amino acids (h340) (Homo sapiens, UniProt O95425-2).
T4 construct: supervillin, human, first 340 amino acids of splice-form 1 (SV1); numbers count on: hSV1 (the ~205-kDa splice-form, not archvillin); also called h340 immunogen; h340 antigen; source: E. coli Rosetta2(DE3)pLysS, purified (glutathione-Sepharose 4B), cleaved from GST-h340 with PreScission Protease
As to the kind of experiment: BLI; Octet RED96e, 30 C, PBS-T; by the methods antibody coupled to AR2G sensors and h340 at about 2, 4, 8 and 16 nM, by the legend of Fig 3 surface-bound h340 and antibody in solution; 2:1 interaction model, global fit; KD as off-rate/on-rate. The following applies: both partners purified.

Experiment [5] deals with T5, Flag-tagged human supervillin splice-form 4 (Flag-hSV4) (Homo sapiens, UniProt O95425-4, strain).
T5 construct: source: RH30 cells, transfected, fixed
As to the kind of experiment: immunostaining of cells or tissue; immunofluorescence, cells fixed with 4% PFA (in CSK buffer, CSK-PFA), Triton X-100; purified antibody 100 ug/ml; overexpressed tagged supervillins in RH30 cells, or endogenous supervillin in U2OS cells on fibronectin. The following applies: one partner purified.

Experiment [6] deals with T6, EGFP-tagged human supervillin splice-form 4 (EGFP-hSV4) (Homo sapiens, UniProt O95425-4, strain).
T6 construct: source: RH30 cells, transfected, fixed
The experiment is described as follows: immunostaining of cells or tissue; immunofluorescence, cells fixed with cold methanol; purified antibody 100 ug/ml; overexpressed tagged supervillins in RH30 cells. To be noted: one partner purified.

T4 sequence (O95425 other isoform, or with tags, fused parts or gaps): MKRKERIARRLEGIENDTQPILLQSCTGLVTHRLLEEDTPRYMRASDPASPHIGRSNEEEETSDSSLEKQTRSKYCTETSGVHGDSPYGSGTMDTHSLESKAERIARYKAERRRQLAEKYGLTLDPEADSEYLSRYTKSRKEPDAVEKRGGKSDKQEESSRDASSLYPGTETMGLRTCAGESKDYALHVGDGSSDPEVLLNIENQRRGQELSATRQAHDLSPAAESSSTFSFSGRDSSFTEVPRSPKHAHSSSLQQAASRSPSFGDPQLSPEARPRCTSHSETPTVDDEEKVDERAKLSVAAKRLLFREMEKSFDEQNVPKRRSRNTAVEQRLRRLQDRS
T5 sequence (O95425 whole entry, looked up, change not shown, canonical isoform): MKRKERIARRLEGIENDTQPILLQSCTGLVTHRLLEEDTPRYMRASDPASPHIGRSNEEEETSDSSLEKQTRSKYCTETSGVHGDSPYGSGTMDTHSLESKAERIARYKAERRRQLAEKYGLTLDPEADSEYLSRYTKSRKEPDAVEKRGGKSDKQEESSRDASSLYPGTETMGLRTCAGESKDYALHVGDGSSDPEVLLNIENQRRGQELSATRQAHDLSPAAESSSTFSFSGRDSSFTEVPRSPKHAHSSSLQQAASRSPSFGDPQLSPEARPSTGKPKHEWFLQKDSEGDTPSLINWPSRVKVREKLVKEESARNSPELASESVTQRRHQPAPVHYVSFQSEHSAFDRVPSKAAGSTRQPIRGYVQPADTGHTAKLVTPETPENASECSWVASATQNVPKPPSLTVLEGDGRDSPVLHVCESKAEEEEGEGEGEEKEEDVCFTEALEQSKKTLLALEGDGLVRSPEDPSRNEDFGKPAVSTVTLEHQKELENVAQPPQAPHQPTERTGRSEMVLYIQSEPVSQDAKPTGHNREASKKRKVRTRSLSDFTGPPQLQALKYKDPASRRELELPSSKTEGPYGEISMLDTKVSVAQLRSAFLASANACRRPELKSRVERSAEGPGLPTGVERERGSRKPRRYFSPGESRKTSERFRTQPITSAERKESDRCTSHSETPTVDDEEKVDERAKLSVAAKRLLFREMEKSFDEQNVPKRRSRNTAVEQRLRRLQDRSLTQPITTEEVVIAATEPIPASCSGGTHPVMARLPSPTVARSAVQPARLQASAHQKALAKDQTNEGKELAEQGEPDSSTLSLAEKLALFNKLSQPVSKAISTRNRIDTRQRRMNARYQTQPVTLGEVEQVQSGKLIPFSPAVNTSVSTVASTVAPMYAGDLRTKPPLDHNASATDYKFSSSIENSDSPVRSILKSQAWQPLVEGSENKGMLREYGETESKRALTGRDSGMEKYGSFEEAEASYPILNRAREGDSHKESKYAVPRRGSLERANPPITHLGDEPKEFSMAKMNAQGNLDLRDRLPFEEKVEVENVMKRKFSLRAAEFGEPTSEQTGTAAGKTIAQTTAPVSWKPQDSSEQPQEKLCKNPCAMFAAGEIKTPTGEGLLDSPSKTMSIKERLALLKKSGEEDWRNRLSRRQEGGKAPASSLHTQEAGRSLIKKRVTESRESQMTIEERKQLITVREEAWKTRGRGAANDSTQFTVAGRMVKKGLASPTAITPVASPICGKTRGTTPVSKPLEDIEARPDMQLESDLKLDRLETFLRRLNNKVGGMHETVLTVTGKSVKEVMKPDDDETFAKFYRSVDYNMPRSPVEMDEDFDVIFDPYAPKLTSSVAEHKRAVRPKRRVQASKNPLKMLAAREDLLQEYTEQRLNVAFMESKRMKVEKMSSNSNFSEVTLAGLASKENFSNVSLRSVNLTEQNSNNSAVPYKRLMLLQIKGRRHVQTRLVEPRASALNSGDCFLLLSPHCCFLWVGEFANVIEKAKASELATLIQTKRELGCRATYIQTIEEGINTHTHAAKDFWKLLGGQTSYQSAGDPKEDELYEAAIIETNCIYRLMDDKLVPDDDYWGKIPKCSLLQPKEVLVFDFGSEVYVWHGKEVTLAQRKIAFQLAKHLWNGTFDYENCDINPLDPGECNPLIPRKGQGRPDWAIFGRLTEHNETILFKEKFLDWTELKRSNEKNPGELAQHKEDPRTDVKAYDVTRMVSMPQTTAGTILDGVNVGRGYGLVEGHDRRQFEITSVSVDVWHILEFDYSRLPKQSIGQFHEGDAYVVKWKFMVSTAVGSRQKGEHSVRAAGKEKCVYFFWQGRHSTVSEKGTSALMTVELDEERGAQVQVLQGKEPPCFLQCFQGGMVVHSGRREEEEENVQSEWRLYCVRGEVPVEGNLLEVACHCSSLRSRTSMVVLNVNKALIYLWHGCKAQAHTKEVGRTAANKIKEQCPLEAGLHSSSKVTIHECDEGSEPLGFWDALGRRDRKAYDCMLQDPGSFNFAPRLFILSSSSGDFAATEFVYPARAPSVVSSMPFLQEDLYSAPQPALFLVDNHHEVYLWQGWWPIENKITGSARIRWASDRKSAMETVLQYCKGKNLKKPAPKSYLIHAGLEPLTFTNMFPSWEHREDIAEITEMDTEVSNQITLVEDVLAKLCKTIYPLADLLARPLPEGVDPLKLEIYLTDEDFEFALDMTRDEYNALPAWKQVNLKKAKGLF
T6 sequence (O95425 whole entry, looked up, change not shown, canonical isoform): as above

B1: murine monoclonal antibody clone 2G3 (hybridoma supernatant) (antibody, V domains shown)
VH: QIQLQQSGPELVKPGASVKISCKASAYTFTDYYINWVKQRPGQGLEWIGWIYPGSGNTKYNEKFKGKATLTVDTSSSTAYMQLSSLTSEDSAVYFCATGPFGGFAYWGQGTLVTVSA
VL: DIVMTQAAPSVPVTPGESVSISCRSSKSLLHSNGNTYLYWFLQRPGQSPQLLIYRMSNLASGVPDRFSGSGSGTAFALRISRVEAEDVGVYYCMQHLEYPLTFDAGTRLELK
notes: HC variable region of clone 2G3, partial CDS; mouse IgG1 heavy chain constant region (isotype IgG1 by isotyping kit); LC variable region of clone 2G3, partial CDS; mouse light chain constant region; mouse IgG1; Group 1; source: mouse hybridoma supernatant (Precision Antibody, Inc.)
For the molecule B1, the binding result in experiment [1], in experiment [2] and in experiment [3] was “binds” in each case.

B2: chimeric (rabbit Fc) monoclonal antibody 1E2 (CPTC-SVIL-1) (antibody, V domains shown)
VH: B1 VH with E10D, A26G, Y60F, K63R, G66D, T98S, Y106H
VL: B1 VL with H31Y, A77T, R79K, D104G, R108K
notes: HC variable region of clone 1E2 (as the heavy chain variable region of m4), partial CDS; LC variable region of clone 1E2 (as the light chain variable region of m4), partial CDS; mouse variable regions on rabbit IgG and rabbit kappa constant regions; Group 1; also called Rb 1E2; chimeric rabbit 1E2; source: HEK293, transient production, purified (protein A)
In experiment [4], B2 had a Kd of 4.21 nM, a koff of 0.000496 s⁻¹ and a kon of 118000 M⁻¹ s⁻¹. Further, in experiment [5], the binding result was “binds”.

B3: chimeric (rabbit Fc) monoclonal antibody 4A8 (CPTC-SVIL-2) (antibody, V domains shown)
VH: EVQLQQSGAELVRPGASVKLSCTASGFNIKDDHMHWVKQRPEQGLEWIGWIDPENGDTEYASKFQDKATITADTSSNTAYLQFSSLTSEDTAVYYCTTGEFDNWGQGTTLTVSS
VL: B1 VL with V11I, E17Q, G73A, A77T, L101F, T102S, D104G, R108K
notes: HC variable region of clone 4A8 (as the heavy chain variable region of m7), partial CDS; LC variable region of clone 4A8 (as the light chain variable region of m7), partial CDS; mouse variable regions on rabbit IgG and rabbit kappa constant regions; Group 2; also called Rb 4A8; chimeric rabbit 4A8; source: HEK293, transient production, purified (protein A)
In experiment [4], B3 displayed a Kd of 0.73 nM, a koff of 0.000296 s⁻¹ and a kon of 407000 M⁻¹ s⁻¹. In experiment [6], the binding result is recorded as “binds”.
